From paper PMC5902190 (Biochemistry, 2017) come the findings set out here.

Like-named read-outs stand apart in the source and are kept apart here.

What all share (experiment): ATP/PPi exchange rate against MLP concentration
Assay [1] addresses EntF, enterobactin nonribosomal peptide synthetase (E. coli) (UniProt P11454).
For assay [2], the target named is T1, EntF, enterobactin nonribosomal peptide synthetase (E. coli, UniProt P11454 1-1293).
Assay [3] concerns the target T1, EntF, enterobactin nonribosomal peptide …. The source holds these as a separate data set.

T1 sequence (P11454 whole entry): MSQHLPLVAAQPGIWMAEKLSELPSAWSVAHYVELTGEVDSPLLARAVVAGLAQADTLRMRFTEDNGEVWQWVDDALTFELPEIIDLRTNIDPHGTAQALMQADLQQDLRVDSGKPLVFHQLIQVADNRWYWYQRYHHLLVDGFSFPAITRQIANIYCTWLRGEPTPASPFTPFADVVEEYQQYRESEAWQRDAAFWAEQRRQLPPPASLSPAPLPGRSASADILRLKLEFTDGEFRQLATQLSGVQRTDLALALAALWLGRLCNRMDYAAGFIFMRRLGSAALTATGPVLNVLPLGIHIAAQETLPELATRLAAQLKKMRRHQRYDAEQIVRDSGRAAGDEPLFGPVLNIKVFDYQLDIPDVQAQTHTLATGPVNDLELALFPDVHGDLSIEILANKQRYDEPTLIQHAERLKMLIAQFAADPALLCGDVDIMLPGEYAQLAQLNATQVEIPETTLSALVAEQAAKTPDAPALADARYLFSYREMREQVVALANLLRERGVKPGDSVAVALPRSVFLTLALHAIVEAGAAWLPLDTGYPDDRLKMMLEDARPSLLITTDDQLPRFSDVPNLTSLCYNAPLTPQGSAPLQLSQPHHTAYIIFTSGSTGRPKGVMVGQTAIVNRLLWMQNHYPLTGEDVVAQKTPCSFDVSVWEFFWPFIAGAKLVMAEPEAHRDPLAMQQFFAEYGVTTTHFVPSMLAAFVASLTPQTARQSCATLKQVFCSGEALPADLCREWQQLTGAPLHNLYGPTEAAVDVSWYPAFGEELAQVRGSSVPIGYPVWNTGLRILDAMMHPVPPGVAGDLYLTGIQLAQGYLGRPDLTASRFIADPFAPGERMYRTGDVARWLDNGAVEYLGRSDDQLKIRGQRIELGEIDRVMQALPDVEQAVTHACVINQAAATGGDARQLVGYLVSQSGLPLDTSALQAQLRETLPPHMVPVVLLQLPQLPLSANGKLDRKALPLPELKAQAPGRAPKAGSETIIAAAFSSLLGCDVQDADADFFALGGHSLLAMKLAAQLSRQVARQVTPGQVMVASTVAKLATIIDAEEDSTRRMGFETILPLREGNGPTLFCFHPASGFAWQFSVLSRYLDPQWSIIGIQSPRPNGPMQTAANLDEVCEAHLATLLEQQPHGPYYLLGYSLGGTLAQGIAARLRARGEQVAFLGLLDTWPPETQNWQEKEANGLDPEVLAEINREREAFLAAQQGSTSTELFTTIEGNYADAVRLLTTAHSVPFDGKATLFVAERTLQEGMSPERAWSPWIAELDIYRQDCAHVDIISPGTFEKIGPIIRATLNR
Chain of EntF, enterobactin nonribosomal peptide synthetase (E. coli) (P11454 whole entry): as above

For the molecule “VioN, MbtH-like protein of viomycin biosynthesis (purified, tag cleaved) (natural protein)”, the dissociation constant Kd (in general, the equilibrium constant for the complex coming apart) in assay [1] amounted to 200 nM.

B1: BSU31959, MbtH-like protein of corynebactin biosynthesis (purified, tag cleaved) (natural protein, Bacillus subtilis strain 168, UniProt C0H3Q6 1-69, looked up)
chain: MANPFENADGTYLVLVNEEGQYSLWPGFIDVPSGWTVVHEQKGREACLDYIQSHWSDMRPNSLKTVENV
On to B1, for which the Kd in assay [2] came to 310 ± 69 nM.

B2: MXAN_3118, orphan MbtH-like protein (purified, tag cleaved) (natural protein, Myxococcus xanthus DK1622, UniProt Q1D7Q2 1-71, looked up)
chain: MTDEREDTTVYKVVVNHEEQYSIWPADRENALGWKDAGKQGLKAECLEYIKEVWTDMRPLSLRKKMEELKS
For the molecule B2, the Kd in assay [2] is 166 ± 29 nM.

B3: MbtH, MbtH-like protein of mycobactin biosynthesis (purified, tag cleaved) (natural protein)
chain: MSTNPFDDDNGAFFVLVNDEDQHSLWPVFADIPAGWRVVHGEASRAACLDYVEKNWTDLRPKSLRDAMVED
Consider B3, for which, in assay [3], binding was characterised by a dissociation constant (Kd) of 54.6 ± 8 nM.

B4: CmnN, MbtH-like protein of capreomycin biosynthesis (purified, tag cleaved) (natural protein, Saccharothrix mutabilis subsp. capreolus, UniProt A6YEI5 1-62, looked up)
chain: MDTYLVVVNHEEQYSVWPADRPLPAGWRAEGTSGDKEQCLAHIETVWTDMRPLSVRRRAEAV
Regarding B4, the affinity in assay [2], expressed as Kd, was 150 ± 7 nM.
